Measured values reported in US20250382384A1.
Numbering of substitutions follows the chain as printed.

B1: chBG138P (antibody, V domains shown)
VH: QVQLLQSGAELARPGASVKMSCKASGYTFTTYTMHWIKQRPGQGLEWIGYINPGSDYTHYNQKFKDKATLTADKSSSTAYMHLYSLTSEDSAVYYCARQGNYAAYYFDYWGQGTTLTVSS
VL: DIQMTQSPASLSASVGETVTITCRASGNIHNFLVWYQQKQGKSPQLLVYNAKTLTDGVPSRFSGSGSGTQYSLKIKSLQPEDFGTYYCQNFWNVPFTFGSGTKLEIK
B2: huBG138P-Hz2 (antibody, V domains shown)
VH: QVQLVQSGAEVKKPGASVKVSCKASGYTFTTYTMHWVRQAPGQRLEWMGYINPGSDYTHYNQKFKDRVTITADTSASTAYMELSSLRSEDTAVYYCARQGNYAAYYFDYWGQGTLVTVSS
VL: DIQMTQSPSSLSASVGDRVTITCRASGNIHNFLVWYQQKPGKSPKLLIYNAKTLTSGVPSRFSGSGSGTQYTLTISSLQPEDVATYYCQNFWNVPFTFGQGTKLEIK
B3: BG138P-Bz0 (antibody, human IgG1, V domains shown)
VH: B2 VH with V37I, R38K, R44G, M48I, R67K, V68A, I70L, T74K, S84Y
VL: B2 VL with I48V, S56D, T72S, Q100S
B4: BG138P-Hz0 (antibody, human IgG1, V domains shown)
VH: B2 VH with A72R
VL: B2 VL with S43V, S56D, Q70D, Y71F
B5: BG138P-Bz1 (antibody, human IgG1, V domains shown)
VH: B2 VH with R38K, R44G, M48I, R67K, V68A, I70L, T74K, S84Y
VL: B2 VL with I48V, S56D, T72S, Q100S
B6: BG138P-Bz2 (antibody, human IgG1, V domains shown)
VH: B2 VH with V37I, R44G, M48I, R67K, V68A, I70L, T74K, S84Y
VL: B2 VL with I48V, S56D, T72S, Q100S
B7: BG138P-Bz3 (antibody, human IgG1, V domains shown)
VH: B2 VH with V37I, R38K, M48I, R67K, V68A, I70L, T74K, S84Y
VL: B2 VL with I48V, S56D, T72S, Q100S
B8: BG138P-Bz4 (antibody, human IgG1, V domains shown)
VH: B2 VH with V37I, R38K, R44G, R67K, V68A, I70L, T74K, S84Y
VL: B2 VL with I48V, S56D, T72S, Q100S
B9: BG138P-Bz5 (antibody, human IgG1, V domains shown)
VH: B2 VH with V37I, R38K, R44G, M48I, V68A, I70L, T74K, S84Y
VL: B2 VL with I48V, S56D, T72S, Q100S
B10: BG138P-Bz6 (antibody, human IgG1, V domains shown)
VH: B2 VH with V37I, R38K, R44G, M48I, R67K, I70L, T74K, S84Y
VL: B2 VL with I48V, S56D, T72S, Q100S
B11: BG138P-Bz7 (antibody, human IgG1, V domains shown)
VH: B2 VH with V37I, R38K, R44G, M48I, R67K, V68A, T74K, S84Y
VL: B2 VL with I48V, S56D, T72S, Q100S
B12: BG138P-Bz8 (antibody, human IgG1, V domains shown)
VH: B2 VH with V37I, R38K, R44G, M48I, R67K, V68A, I70L, A72R, T74K, S84Y
VL: B2 VL with I48V, S56D, T72S, Q100S
B13: BG138P-Bz9 (antibody, human IgG1, V domains shown)
VH: B2 VH with V37I, R38K, R44G, M48I, R67K, V68A, I70L, S84Y
VL: B2 VL with I48V, S56D, T72S, Q100S
B14: BG138P-Bz10 (antibody, human IgG1, V domains shown)
VH: B2 VH with V37I, R38K, R44G, M48I, R67K, V68A, I70L, T74K
VL: B2 VL with I48V, S56D, T72S, Q100S
B15: BG138P-Bz11 (antibody, human IgG1, V domains shown)
VH: B2 VH with V37I, R38K, R44G, M48I, R67K, V68A, I70L, T74K, S84Y
VL: B2 VL with S43V, I48V, S56D, T72S, Q100S
B16: BG138P-Bz12 (antibody, human IgG1, V domains shown)
VH: B2 VH with V37I, R38K, R44G, M48I, R67K, V68A, I70L, T74K, S84Y
VL: B2 VL with S56D, T72S, Q100S
B17: BG138P-Bz13 (antibody, human IgG1, V domains shown)
VH: B2 VH with V37I, R38K, R44G, M48I, R67K, V68A, I70L, T74K, S84Y
VL: B2 VL with I48V, S56D, Q70D, T72S, Q100S
B18: BG138P-Bz14 (antibody, human IgG1, V domains shown)
VH: B2 VH with V37I, R38K, R44G, M48I, R67K, V68A, I70L, T74K, S84Y
VL: B2 VL with I48V, S56D, Y71F, T72S, Q100S
B19: BG138P-Bz15 (antibody, human IgG1, V domains shown)
VH: B2 VH with V37I, R38K, R44G, M48I, R67K, V68A, I70L, T74K, S84Y
VL: B2 VL with I48V, S56D, Q100S
B20: BG138P-Bz16 (antibody, human IgG1, V domains shown)
VH: B2 VH with V37I, R38K, R44G, M48I, R67K, V68A, I70L, T74K, S84Y
VL: B2 VL with I48V, S56D, T72S
B21: chBG346P (antibody, V domains shown)
VH: EVQLQQSGAELVKPGASVKISCKASGYTFTNYWMNWVRQRPGQGLEWIGEIDPSDSYTNNNQKFKDKATLTVDKSSSTAYMQLSSLTSEDSAVYYCARGRRTGFAYWGQGTLVTVSS
VL: DIQMTQSPASLSVSVGETVTITCRASENIYSNLAWYQKKQGKSPQLLVYAATNLADGVPSRFSGSGSGTQYSLKINSLQSEDFGNYYCQHFWGTPYTFGGGTKLEIK
B22: chBG219P (antibody, V domains shown)
VH: EVQLVESGGGLVKPGGSLKLSCAASGFTFNDYIMSWVRQTPEKRLEWVATVSSGGDNTYYPDSVKGRFTISRDNAKNNLYLQMSSLRSEDTALYYCTRYGGLGAMDYWGQGTSVTVSS
VL: DIVMTQSPASLSASVGETVTITCRASGNIHNYLTWYQQKQGKSPQLLVYNAKTLADGVPSRFSGSGSGPQYSLKINSLQPEDFGSYYCQHFWSVPYTFGGGTRLEIK

Tests used:
[1] = target: full-length cynomolgus MUC1 on stably transfected cells (cynomolgus); assay: FACS (iQue3) on HEK293-cynoMUC1 cells
Chain of full-length cynomolgus MUC1 on stably transfected cells (cynomolgus) (chain, as listed by the source limits assumed, form in doubt): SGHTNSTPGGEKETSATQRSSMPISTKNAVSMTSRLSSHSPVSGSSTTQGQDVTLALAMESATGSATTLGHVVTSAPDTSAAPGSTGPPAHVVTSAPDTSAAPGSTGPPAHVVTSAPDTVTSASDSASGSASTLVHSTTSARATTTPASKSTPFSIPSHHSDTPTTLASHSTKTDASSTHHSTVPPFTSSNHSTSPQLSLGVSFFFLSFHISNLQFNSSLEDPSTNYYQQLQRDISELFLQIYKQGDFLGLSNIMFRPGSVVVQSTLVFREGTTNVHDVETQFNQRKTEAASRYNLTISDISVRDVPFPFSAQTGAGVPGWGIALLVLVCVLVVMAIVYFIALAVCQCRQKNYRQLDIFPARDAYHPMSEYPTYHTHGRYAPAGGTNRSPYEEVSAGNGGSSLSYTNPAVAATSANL

[2] = target: full-length cynomolgus MUC1 on stably transfected cells (cynomolgus); assay: FACS on HEK293/cyno MUC1
[3] = target: cynomolgus MUC1 SEA domain protein (cynomolgus); assay: SPR, antibody captured, cynoMUC1 SEA analyte
[4] = target: cynomolgus MUC1 SEA domain protein (cynomolgus); assay: SPR (Biacore 2000), antibody captured, cynoMUC1 SEA analyte, 1:1 binding

Binder | Kd [4] [nM] | other results
B1 |  | EC50 (read off the curve) [1]: 4 nM; EC50 [2]: 7.55 nM
B2 |  | EC50 (read off the curve) [1]: 3 nM; Kd [3]: 6.67 nM
B3 | 6.59 | 
B4 | 91.7 | 
B5 | 7.18 | 
B6 | 6.96 | 
B7 | 9.04 | 
B8 | 6.73 | 
B9 | 6.31 | 
B10 | 6.79 | 
B11 | 4.35 | 
B12 | 13.5 | 
B13 | 6.81 | 
B14 | 6.28 | 
B15 | 9.42 | 
B16 | 6.56 | 
B17 | 6.7 | 
B18 | 24.4 | 
B19 | 6.11 | 
B20 | 5.6 | 
B21 |  | EC50 [2]: 41.8 nM
B22 |  | EC50 [2]: 12.7 nM
